Assay results reported in article PMC10811338, “2.7 Å cryo-EM structure of human telomerase H/ACA ribonucleoprotein” (Nature Communications, 2024).

B1: dyskerin (natural protein, human (endogenous in HEK293T), UniProt O60832 1-514, looked up)
chain: MADAEVIILPKKHKKKKERKSLPEEDVAEIQHAEEFLIKPESKVAKLDTSQWPLLLKNFDKLNVRTTHYTPLACGSNPLKREIGDYIRTGFINLDKPSNPSSHEVVAWIRRILRVEKTGHSGTLDPKVTGCLIVCIERATRLVKSQQSAGKEYVGIVRLHNAIEGGTQLSRALETLTGALFQRPPLIAAVKRQLRVRTIYESKMIEYDPERRLGIFWVSCEAGTYIRTLCVHLGLLLGVGGQMQELRRVRSGVMSEKDHMVTMHDVLDAQWLYDNHKDESYLRRVVYPLEKLLTSHKRLVMKDSAVNAICYGAKIMLPGVLRYEDGIEVNQEIVVITTKGEAICMAIALMTTAVISTCDHGIVAKIKRVIMERDTYPRKWGLGPKASQKKLMIKQGLLDKHGKPTDSTPATWKQEYVDYSESAKKEVVAEVVKAPQVVAEAAKTAKRKRESESESDETPPAAPQLIKKEKKKSKKDKKAKAGLESGAEPGDGDSDTTKKKKKKKKAKEVELVSE
notes: dyskerin, human, catalytic pseudouridine synthase subunit of H/ACA RNPs; domains NTE, PUA, TruB, CTE; two copies (5’ and 3’) stand in the telomerase H/ACA RNP; residues 1-22 (5’ copy) and 1-42 (3’ copy) are not visible in the map; also called 5’ dyskerin; 3’ dyskerin; source: endogenous, HEK293T cells transfected with TERT and hTR
B2: NHP2 (natural protein, human (endogenous in HEK293T), UniProt Q9NX24 1-153, looked up)
chain: MTKIKADPDGPEAQAEACSGERTYQELLVNQNPIAQPLASRRLTRKLYKCIKKAVKQKQIRRGVKEVQKFVNKGEKGIMVLAGDTLPIEVYCHLPVMCEDRNLPYVYIPSKTDLGAAAGSKRPTCVIMVKPHEEYQEAYDECLEEVQSLPLPL
notes: NHP2, human, core H/ACA protein; two copies (5’ and 3’) stand in the telomerase H/ACA RNP; also called 3’ NHP2; source: HEK293T cells transfected with TERT and hTR

Experiments:
[1] = biological target: the molecule itself; experiment: cryo-EM structure; telomerase-DNA-TPT complex assembled in HEK293T cells and purified as a whole, BS3 cross-linked; H/ACA RNP lobe by signal subtraction; 2.7 Å (semi-closed thumb loop) and 3.1 Å (open thumb loop) reconstructions
TCAB1 = biological target: T1, TCAB1 (human (endogenous in HEK293T), UniProt Q9BUR4 1-548); experiment: as above; conditions: both partners purified
T1 construct: TCAB1, human, Cajal body localization factor of the telomerase H/ACA RNP; also called Cajal body localization factor; source: HEK293T cells transfected with TERT and hTR
T1 sequence (Q9BUR4 whole entry): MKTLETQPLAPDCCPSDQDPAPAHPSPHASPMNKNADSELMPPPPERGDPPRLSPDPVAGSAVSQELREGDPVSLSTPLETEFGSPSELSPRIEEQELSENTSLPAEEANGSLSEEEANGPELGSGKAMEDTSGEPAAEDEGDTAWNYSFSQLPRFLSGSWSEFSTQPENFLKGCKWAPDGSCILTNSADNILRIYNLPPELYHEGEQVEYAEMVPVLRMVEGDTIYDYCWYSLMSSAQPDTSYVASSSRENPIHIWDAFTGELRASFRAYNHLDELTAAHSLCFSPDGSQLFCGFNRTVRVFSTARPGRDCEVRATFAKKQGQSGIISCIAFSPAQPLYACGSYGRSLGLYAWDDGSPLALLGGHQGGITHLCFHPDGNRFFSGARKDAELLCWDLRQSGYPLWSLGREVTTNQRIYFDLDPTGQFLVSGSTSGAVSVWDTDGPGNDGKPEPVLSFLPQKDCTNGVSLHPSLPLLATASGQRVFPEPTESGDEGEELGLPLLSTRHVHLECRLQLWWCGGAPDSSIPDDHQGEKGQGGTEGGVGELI

Binder | binding result [1] | binding result (TCAB1)
B1 | binds | –
B2 | – | binds
